T1: Mcl-1, Q07820
T1 chain: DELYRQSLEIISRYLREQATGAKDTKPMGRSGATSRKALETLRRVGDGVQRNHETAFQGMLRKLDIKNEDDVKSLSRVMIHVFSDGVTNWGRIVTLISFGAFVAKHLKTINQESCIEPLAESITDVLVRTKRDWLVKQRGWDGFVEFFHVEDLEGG

T2: Bfl-1, Q16548
T2 chain: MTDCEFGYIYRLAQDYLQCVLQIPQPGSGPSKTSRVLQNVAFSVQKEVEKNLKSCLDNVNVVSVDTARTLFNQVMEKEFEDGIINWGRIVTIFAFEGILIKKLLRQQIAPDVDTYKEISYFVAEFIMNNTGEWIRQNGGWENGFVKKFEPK

B1: RAD52 (peptide)
chain: EAVTDGLKRADRSFGNALGNCILDKD
B2: SLC26A4 (peptide)
chain: LSIIYTLVEIDQNIGDTNLADFTAGL
B3: RTEL1 (peptide)
chain: RVCPYYLSRNDKQQADIIFMPYNYLL
B4: DOCK2 (peptide)
chain: SHFVACMTAILNQMLDQHYSFYIETF
B5: POFUT2 (peptide)
chain: TRRSMVFARHDREVGDEFRSRHLNST
B6: MINA (peptide)
chain: TVATRRLSGFDRTLADRLEGTKELLS
B7: NLRX1 (peptide)
chain: YIVLGLRKTTDQKVGKEVAELVGRVG
B8: DNAH10 (peptide)
chain: SMRRNAMGVGDVFEADLFTTRHISHW
B9: BMF (peptide)
chain: HQAEVQIARKDQCIADQFHRLHVQQH
B10: WDR60 (peptide)
chain: GGRVKLVHSALIQLGDSLSHKGNEFW
B11: SRL (peptide)
chain: GYPFNDVCQWDIDRADLIFVVFDPTK
B12: FOXI1 (peptide)
chain: PDKRLTLSQIYQYVLDNFPFYNKSKA
B13: CYP2A6 (peptide)
chain: MPYMEAVIHEIQRFLDVIPMSLARRV
B14: KCNH1 (peptide)
chain: VHKHSRLAEVDQLGSDILPQYKQEAP
B15: ZFP90 (peptide)
chain: PSECETLGSNLGHNADLLNENNILAK
B16: SYT1 (peptide)
chain: FVGYNSTGAEDRHWSDMLANPRRPIA
B17: HEXDC (peptide)
chain: VLELHPGAQRLHIGCDEVYYLGEGEA
B18: BMF (peptide)
chain: HQAEVQIARKLQCILDQFHRLHVQQH
B19: CRB1 (peptide)
chain: TGSLCEIATTLSFELDGFLWVKSGSV
B20: DDX4 (peptide)
chain: FSKREKLVEILRNILDERTMVFVETK
B21: FUT8 (peptide)
chain: KKLKNLEGNELQRHADEFLLDLGHHE
B22: PRKD3 (peptide)
chain: IQENVDISTVDQIFADEVLGSGQFGI
B23: ISOC1 (peptide)
chain: AGYELLIQKFLSLYGDQIDMHRKFVV
B24: GBP6 (peptide)
chain: NDDTPWIARTLDNLADELTAILSAPA
B25: DHX30 (peptide)
chain: PVESSWIAPELRLQLDDILPLGKDSG
B26: FBXO30 (peptide)
chain: LCQLSCVSKLDRDVCGSLLQSRGMVI
B27: PRCP (peptide)
chain: DDMFEPHSWNLKELLDDCFQQWGVRP
B28: DHX30 (peptide)
chain: PVESSWIAPEDRLQSDDILPLGKDSG
B29: PRCP (peptide)
chain: DDMFEPHSWNDKELSDDCFQQWGVRP
B30: ZNF295 (peptide)
chain: ERLKGQLCDVDLIVGDQKFRAHKNVL
B31: RBL1 (peptide)
chain: WTLFVYTKGNFRMILDDLVNSYHLLL
B32: BBS10 (peptide)
chain: RMIVDCVSSHLKKTGDGAKTFIIFLC

What was measured:
Assay in all cases: peptide SPOT array, c-Myc-tagged receptor at 1 uM or 100 nM, anti-c-Myc-Cy3
Mcl-1, Q07820 = biological target: T1, Mcl-1, Q07820
Bcl-xL, Q07817 = biological target: Bcl-xL, Q07817
Bcl-xL, Q07817, sequence (Q07817 1-209): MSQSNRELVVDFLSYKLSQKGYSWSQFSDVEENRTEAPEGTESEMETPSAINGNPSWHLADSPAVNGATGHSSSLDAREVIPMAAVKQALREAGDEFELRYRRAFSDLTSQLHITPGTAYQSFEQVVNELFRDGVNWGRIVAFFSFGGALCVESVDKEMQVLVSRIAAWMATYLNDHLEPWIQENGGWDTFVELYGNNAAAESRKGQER

Bfl-1, Q16548 = biological target: T2, Bfl-1, Q16548

Row | SPOT signal as a fraction of Bim BH3's signal on the same receptor and array (Mcl-1, Q07820) | SPOT signal as a fraction of Bim BH3's signal on the same receptor and array (Bcl-xL, Q07817) | SPOT signal as a fraction of Bim BH3's signal on the same receptor and array (Bfl-1, Q16548) | Binder
1 | 0.04 | 0.05 | 0.03 | B1
2 | 0.06 | 0.07 | 0.03 | B2
3 | 1.1 | 1.3 | 0.67 | B3
4 | 0.07 | 0.08 | 0.06 | B4
5 | 1.62 | 0.85 | 0.61 | B5
6 | 0.28 | 0.29 | 0.12 | B6
7 | 0.24 | 0.32 | 0.19 | B7
8 | 0.09 | 0.12 | 0.09 | B8
9 | 0.01 | 0.03 | 0.01 | B9
10 | 0.34 | 0.3 | 0.36 | B10
11 | 0.06 | 0.07 | 0.05 | B11
12 | 0.39 | 0.76 | 0.41 | B12
13 | 0.08 | 0.14 | 0.06 | B13
14 | 0.13 | 0.1 | 0.06 | B14
15 | 0.04 | 0.09 | 0.03 | B15
16 | 0.08 | 0.11 | 0.07 | B16

Row | SPOT signal as a fraction of Bim BH3's signal on the same receptor and array (Mcl-1, Q07820) | SPOT signal as a fraction of Bim BH3's signal on the same receptor and array (Bcl-xL, Q07817) | SPOT signal as a fraction of Bim BH3's signal on the same receptor and array (Bfl-1, Q16548) | Binder
17 | 0.05 | 0.06 | 0.05 | B17
18 | 0.1 | 0.27 | 0.1 | B18
19 | 0.04 | 0.07 | 0.03 | B19
20 | 0.15 | 0.08 | 0.08 | B20
21 | 0.05 | 0.12 | 0.05 | B21
22 | 0.03 | 0.07 | 0.04 | B22
23 | 0.13 | 0.13 | 0.06 | B23
24 | 0.04 | 0.04 | 0.04 | B24
25 | 0.04 | 0.05 | 0.04 | B25
26 | 0.08 | 0.14 | 0.11 | B26
27 | 0.04 | 0.07 | 0.05 | B27
28 | 0.04 | 0.05 | 0.04 | B28
29 | 0.04 | 0.07 | 0.05 | B29
30 | 0.08 | 0.16 | 0.07 | B30
31 | 0.11 | 0.09 | 0.13 | B31
32 | 0.17 | 1 | 0.36 | B32

Reference: publication PMC4072508, “Genome-Wide Prediction and Validation of Peptides That Bind Human Prosurvival Bcl-2 Proteins” (PLoS Computational Biology, 2014)
